In test [1] the target is T1, cyno IL-13 (cynomolgus monkey, UniProt Q0PW92 21-132). The experiment in a line: cell-based or functional assay.
Test [2] deals with T2, human IL-13 (human, UniProt P35225 35-146, limits assumed). Nature of the test: cell-based or functional assay.
For test [3], the target named is T3, rhesus IL-13 (rhesus monkey, UniProt Q864V6 19-132, limits assumed). Nature of the test: cell-based or functional assay.
Test [4] concerns the target T4, human OX40L (human, UniProt P23510 51-183).
T4 construct: Protein in solution or immobilised (SPR, Gyrolab); construct not described; also called huOX40L; hOX40L
T4 sequence (looked up): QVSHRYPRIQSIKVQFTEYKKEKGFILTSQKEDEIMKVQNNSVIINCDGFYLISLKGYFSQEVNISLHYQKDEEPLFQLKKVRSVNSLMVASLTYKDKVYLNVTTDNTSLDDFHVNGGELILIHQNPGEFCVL
The experiment in a line: Gyrolab in-solution affinity, 24 h incubation; 95% CI 64.7-91.0 pM. On the procedure:
(§1) Under receptor-controlled measurements a serial dilution of OX40L (ranging from 1.3 μM-0.031 μM), IL-13 (ranging from 0.1 μM-0.25 fM), or serum albumin (ranging from 100 μM-3.2 μM) and a fixed amount of ISVD construct F027100187 (5 nM in case of OX40L, […] in case of IL-13 and 30 nM in case of HSA and cyno SA) were mixed to allow interaction and incubated for either 24 or 48 hours (in case of OX40L and IL-13) or 2 hours (in case of serum albumin) to reach equilibrium.
(§2) Biotinylated human OX40L/IL-13/serum albumin was captured in the microstructures of a Gyrolab Bioaffy 1000 CD, which contains columns of beads and was used as a molecular probe to capture free F027100187 from the equilibrated solution. The mixture of OX40L/IL13/serum albumin and F027100187 (containing free OX40UIL-13/serum albumin, free F027100187 and OX40L/IL13/serum albumin—F027100187 complexes) was allowed to flow through the beads, and a small percentage of free F027100187 was captured, which is proportional to the free ISVD construct concentration. A fluorescently labeled anti-ISVD antibody, ABH0086-Alexa647, was then injected to label any captured F027100187 and after rinsing away excess of fluorescent probe, the change in fluorescence was determined. Fitting of the dilution series was done using Gyrolab Analysis software, where KD- and receptor-controlled curves were analyzed to determine the KD value.

Test [5] has as its target T5, human serum albumin (human, UniProt P02768 25-609).
T5 construct: also called HSA; HAS
Nature of the test: Gyrolab in-solution affinity, 2 h incubation; 95% CI 6.7-8.9 nM. As for the experimental part: as §1, §2

Test [6] addresses T2, human IL-13. The experiment in a line: flow cytometry on CHO-KI cells expressing human OX40L loaded with 100 nM F027100187, dilution series of soluble human IL-13 in the presence of 30 uM HSA (bridging / simultaneous binding; x axis printed as 'Concentration human IL-13-Fc (M)', text says biotinylated IL-13). On the procedure:
Using flow cytometry, it was determined whether ISVD construct F0271000187 can bind simultaneously to recombinant soluble hIL-13 and cell membrane bound hOX40L. […] Subsequently the mixture was incubated with a dilution series of biotinylated IL-13 starting from 500 nM down to […], and incubated for 30 min at 4° C., in the presence of 30 μM HSA. Cells were washed 3 times and subsequently incubated with PE-labelled […] for 30 min at 4° C., washed again. Samples were washed and resuspended in FACS Buffer (D-PBS with 10% FBS and 0.05% sodium azide supplemented with 5 nM TOPRO3). Cell suspensions were then analyzed on a iQuescreener.
For orientation: A flow cytometer gives signals particle by particle.

For test [7], the target named is T1, cyno IL-13. The experiment in a line: Gyrolab in-solution affinity, 48 h incubation; 95% CI 5.8-7.5 pM. As for the experimental part:
as §1, §2

Test [8] deals with T3, rhesus IL-13. Nature of the test: Gyrolab in-solution affinity, 48 h incubation; 95% CI 6.8-39.6 pM. As for the experimental part: as §1, §2
The target in a further test is T6, cyno OX40L (cynomolgus monkey, UniProt G7NVH7 51-183).
T6 construct: also called cyOX40L; cynomolgus monkey OX40L
T6 sequence: T4 sequence (looked up) with R5Q, K23E
The experiment in a line: Gyrolab in-solution affinity, 48 h incubation; 95% CI 225-326 pM. As for the experimental part:
as §1, §2

Test [9] concerns the target T4, human OX40L. The experiment in a line: cell-based or functional assay.
Test [10] deals with T4, human OX40L. Nature of the test: Gyrolab in-solution affinity, 48 h incubation; 95% CI 98-120 pM. As for the experimental part:
as §1, §2

In test [11] the target is T2, human IL-13. The experiment in a line: cell-based or functional assay. This is another data set of the same source.
For test [12], the target named is T2, human IL-13. Nature of the test: Gyrolab in-solution affinity, 48 h incubation; 95% CI 6.4-9.1 pM. On the procedure: as §1, §2
The target of test [13] is T2, human IL-13. The experiment in a line: Gyrolab in-solution affinity, 48 h incubation; 95% CI 3.4-7.1 pM. On the procedure:
as §1, §2

Test [14] has as its target T3, rhesus IL-13. The experiment in a line: Gyrolab in-solution affinity, 48 h incubation; 95% CI 9.0-49.5 pM. On the procedure: as §1, §2
Test [15] concerns the target T2, human IL-13. The experiment in a line: Gyrolab in-solution affinity, 48 h incubation; 95% CI 3.8-11.5 pM. As for the experimental part: as §1, §2
The target in test [16] is T5, human serum albumin. The experiment in a line: Gyrolab in-solution affinity, 2 h incubation; 95% CI 7.7-9.0 nM. As for the experimental part:
as §1, §2

Test [17] concerns the target T1, cyno IL-13. Nature of the test: Gyrolab in-solution affinity, 48 h incubation; 95% CI 9.5-13.9 pM. As for the experimental part:
as §1, §2

Numbering of substitutions follows the chain as printed.

T3 sequence (Q864V6 19-132 limits assumed): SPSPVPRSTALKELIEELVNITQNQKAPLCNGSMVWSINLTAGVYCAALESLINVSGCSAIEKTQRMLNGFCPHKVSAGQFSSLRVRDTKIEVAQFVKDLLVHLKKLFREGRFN
T1 sequence (Q0PW92 entry or part of it): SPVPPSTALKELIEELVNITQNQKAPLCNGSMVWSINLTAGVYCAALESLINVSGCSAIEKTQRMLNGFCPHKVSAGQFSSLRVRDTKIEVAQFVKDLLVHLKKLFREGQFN
T2 sequence (P35225 35-146 limits assumed): as the sequence (Q0PW92 entry or part of it) above, with S1G, K10R, V42M, N67S, R83H, V100L counted along it
T5 sequence (P02768 25-609 limits assumed): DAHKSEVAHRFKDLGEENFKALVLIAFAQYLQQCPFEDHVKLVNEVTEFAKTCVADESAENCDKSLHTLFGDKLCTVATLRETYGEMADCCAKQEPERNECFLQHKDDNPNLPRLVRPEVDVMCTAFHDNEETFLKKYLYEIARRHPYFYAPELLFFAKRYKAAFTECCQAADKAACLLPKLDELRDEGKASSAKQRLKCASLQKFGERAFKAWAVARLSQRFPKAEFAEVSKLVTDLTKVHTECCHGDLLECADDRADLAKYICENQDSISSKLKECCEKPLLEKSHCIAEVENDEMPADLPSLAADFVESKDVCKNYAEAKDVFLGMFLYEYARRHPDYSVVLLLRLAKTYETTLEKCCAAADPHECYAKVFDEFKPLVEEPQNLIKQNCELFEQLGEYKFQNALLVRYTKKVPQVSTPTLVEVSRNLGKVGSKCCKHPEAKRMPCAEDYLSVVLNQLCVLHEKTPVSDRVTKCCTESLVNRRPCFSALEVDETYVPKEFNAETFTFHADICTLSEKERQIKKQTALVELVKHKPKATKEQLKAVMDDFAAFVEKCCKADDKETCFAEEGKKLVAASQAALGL

B1: ISVD construct F027100187 (other)
chain: DVQLVESGGGVVQPGGSLRLSCAASRSIGRYDRMGWYRHRPGEPRELVATITGGSSINYGDSVKGRFTISIDNSKNTVYLQMNSLRPEDTALYYCNFNKYQISRDTWGQGTLVTVSSGGGGSGGGSEVQLVESGGGVVQPGGSLRLSCAASGRTFSSYRMGWFRQAPGKEREFVAALSGDGYSTYTANSVKGRFTISRDNSKNTVYLQMNSLRPEDTALYYCAAKLQYVSGWSYDYPYWGQGTLVTVSSGGGGSGGGSEVQLVESGGGVVQPGGSLRLSCAASGFTFRSFGMSWVRQAPGKGPEWVSSISGSGSDTLYADSVKGRFTISRDNSKNTLYLQMNSLRPEDTALYYCTIGGSLSRSSQGTLVTVSSGGGGSGGGSEVQLVESGGGVVQPGGSLRLSCAASGFTFNNYAMKWVRQAPGKGLEWVSSITTGGGSTDYADSVKGRFTISRDNSKNTLYLQMNSLRPEDTALYYCANVPFGYYSEHFSGLSFDYRGQGTLVTVSSA
notes: Tetravalent, trispecific single-chain construct of four VHH (ISVD) domains: one against OX40L, two against IL-13, one against serum albumin; also called F0271000187; F27100187
A word on the Kd: it is a measure of binding affinity in units of concentration. A lower Kd goes with a tighter complex. For orientation: EC50 (read off the curve) means the concentration giving half of the maximal effect. For the molecule B1, the “eotaxin release assay (IC50, pM)” value worked out at 1940 pM with cyno IL-13 [1], 259 pM with human IL-13 [2] and 858 pM with rhesus IL-13 [3]. Besides, the Kd with human OX40L [4] is 0.0778 nM; with human serum albumin [5], 7.8 nM; with cyno IL-13 [7], 0.0067 nM; with rhesus IL-13 [8], 0.0232 nM; with cyno OX40L, 0.275 nM; in the test with human OX40L [10] it was 0.109 nM. For the same molecule, the Kd in the test with human IL-13 [12] was 0.0078 nM; with human IL-13 [13], 0.0053 nM; with rhesus IL-13 [14], 0.0293 nM; with human IL-13 [15], 0.0076 nM; with human serum albumin [16] it was 8.3 nM; in the test with cyno IL-13 [17], 0.0117 nM. Also, the “EC50 (read off the curve)” value in the test with human IL-13 [6] is roughly 20 nM. Further, the “IL-5 IC50 (nM), triculture assay” value with human OX40L [9] turned out to be 1 nM. For the same molecule, the “CCL26 IC50 (pM), triculture assay” value with human IL-13 [11] came to 40.7 pM.

Values taken from patent publication US20220153854A1 (Ablynx, published 2022).
